Columns and labels:
[1] = system: RBD of SARS-CoV-2 Delta strain B.1.617.2, on infectious virus
[2] = system: RBD of SARS-CoV-2 Delta strain
[3] = system: RBD of SARS-CoV-2 Omicron strain B.1.1.529, BA1, on infectious virus
[4] = system: RBD of SARS-CoV-2 Omicron strain

## gene recombinant of human PDI (protein disulfide isomerase)
[1]
  antiviral activity (viral genome amount in supernatant of infected airway organoids): PDI showed the high antiviral activity against both the Delta strain and the Omicron strain.
[2]
  disulfide bond cleavage activity (remaining rate of native RBD; maleimide-PEG 2k, SDS-PAGE): PDI showed an activity to cleave disulfide bonds in both the RBD of the Delta strain and the RBD of the Omicron strain.
[3]
  antiviral activity (viral genome amount in supernatant of infected airway organoids): PDI showed the high antiviral activity against both the Delta strain and the Omicron strain.
[4]
  disulfide bond cleavage activity (remaining rate of native RBD; maleimide-PEG 2k, SDS-PAGE): PDI showed an activity to cleave disulfide bonds in both the RBD of the Delta strain and the RBD of the Omicron strain. The disulfide bond cleavage activity was particularly high in the RBD of the Omicron strain.
